IntAct's records for PubMed 28712572

Legend:
gbrap_human GABARAP [1] = target: gbrap_human GABARAP (UniProt O95166)
gbrap_human GABARAP [2] = target: gbrap_human GABARAP (UniProt O95166); remark: listed apart in the source
gbrap_human GABARAP [3] = target: gbrap_human GABARAP (UniProt O95166); remark: listed apart in the source

Sequence of gbrap_human GABARAP (O95166 whole entry): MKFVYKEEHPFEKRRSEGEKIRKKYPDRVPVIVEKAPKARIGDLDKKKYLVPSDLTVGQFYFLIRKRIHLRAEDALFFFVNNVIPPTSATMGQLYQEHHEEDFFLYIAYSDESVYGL

Row | effect of a mutation on the interaction (gbrap_human GABARAP [3]) | Substance | other results
1 |  | Pericentriolar material 1 protein (Homo sapiens), Q15154 D1962A;F1963A;V1966A | effect of a mutation on the interaction (gbrap_human GABARAP [1]): decreasing interaction strength; effect of a mutation on the interaction (gbrap_human GABARAP [2]): with no effect
2 | disrupting interaction strength | Pericentriolar material 1 protein (Homo sapiens), Q15154 V1964A | 
3 | with no effect | Pericentriolar material 1 protein (Homo sapiens), Q15154 V1964C | 
4 | decreasing interaction strength | Pericentriolar material 1 protein (Homo sapiens), Q15154 V1964D | 
5 | with no effect | Pericentriolar material 1 protein (Homo sapiens), Q15154 V1964E | 
6 | with no effect | Pericentriolar material 1 protein (Homo sapiens), Q15154 V1964F | 
7 | disrupting interaction strength | Pericentriolar material 1 protein (Homo sapiens), Q15154 V1964G | 
8 | disrupting interaction strength | Pericentriolar material 1 protein (Homo sapiens), Q15154 V1964H | 
9 | with no effect | Pericentriolar material 1 protein (Homo sapiens), Q15154 V1964I | 
10 | disrupting interaction strength | Pericentriolar material 1 protein (Homo sapiens), Q15154 V1964K | 
11 | decreasing interaction strength | Pericentriolar material 1 protein (Homo sapiens), Q15154 V1964L | 
12 | disrupting interaction strength | Pericentriolar material 1 protein (Homo sapiens), Q15154 V1964M | 
13 | disrupting interaction strength | Pericentriolar material 1 protein (Homo sapiens), Q15154 V1964N | 
14 | disrupting interaction strength | Pericentriolar material 1 protein (Homo sapiens), Q15154 V1964P | 
15 | disrupting interaction strength | Pericentriolar material 1 protein (Homo sapiens), Q15154 V1964Q | 
16 | disrupting interaction strength | Pericentriolar material 1 protein (Homo sapiens), Q15154 V1964R | 
17 | disrupting interaction strength | Pericentriolar material 1 protein (Homo sapiens), Q15154 V1964S | 
18 | disrupting interaction strength | Pericentriolar material 1 protein (Homo sapiens), Q15154 V1964T | 
19 | disrupting interaction strength | Pericentriolar material 1 protein (Homo sapiens), Q15154 V1964W | 
20 | decreasing interaction strength | Pericentriolar material 1 protein (Homo sapiens), Q15154 V1964Y | 

Row | effect of a mutation on the interaction (gbrap_human GABARAP [3]) | Substance | other results
21 | disrupting interaction strength | Pericentriolar material 1 protein (Homo sapiens), Q15154 V1966A | 
22 | disrupting interaction strength | Pericentriolar material 1 protein (Homo sapiens), Q15154 V1966C | 
23 | disrupting interaction strength | Pericentriolar material 1 protein (Homo sapiens), Q15154 V1966D | 
24 | disrupting interaction strength | Pericentriolar material 1 protein (Homo sapiens), Q15154 V1966E | 
25 | with no effect | Pericentriolar material 1 protein (Homo sapiens), Q15154 V1966F | 
26 | disrupting interaction strength | Pericentriolar material 1 protein (Homo sapiens), Q15154 V1966G | 
27 | disrupting interaction strength | Pericentriolar material 1 protein (Homo sapiens), Q15154 V1966H | 
28 | with no effect | Pericentriolar material 1 protein (Homo sapiens), Q15154 V1966I | 
29 | disrupting interaction strength | Pericentriolar material 1 protein (Homo sapiens), Q15154 V1966K | 
30 | with no effect | Pericentriolar material 1 protein (Homo sapiens), Q15154 V1966L | 
31 | disrupting interaction strength | Pericentriolar material 1 protein (Homo sapiens), Q15154 V1966M | 
32 | disrupting interaction strength | Pericentriolar material 1 protein (Homo sapiens), Q15154 V1966N | 
33 | disrupting interaction strength | Pericentriolar material 1 protein (Homo sapiens), Q15154 V1966P | 
34 | disrupting interaction strength | Pericentriolar material 1 protein (Homo sapiens), Q15154 V1966Q | 
35 | disrupting interaction strength | Pericentriolar material 1 protein (Homo sapiens), Q15154 V1966R | 
36 | disrupting interaction strength | Pericentriolar material 1 protein (Homo sapiens), Q15154 V1966S | 
37 | disrupting interaction strength | Pericentriolar material 1 protein (Homo sapiens), Q15154 V1966T | 
38 | disrupting interaction strength | Pericentriolar material 1 protein (Homo sapiens), Q15154 V1966W | 
39 | decreasing interaction strength | Pericentriolar material 1 protein (Homo sapiens), Q15154 V1966Y | 
